Source: patent publication US20120034160A1 (AbbVie / Abbott, published 2012)

T1: Recombinant Human IL-17 (human, UniProt Q16552 20-155, limits assumed)
T1 sequence (looked up): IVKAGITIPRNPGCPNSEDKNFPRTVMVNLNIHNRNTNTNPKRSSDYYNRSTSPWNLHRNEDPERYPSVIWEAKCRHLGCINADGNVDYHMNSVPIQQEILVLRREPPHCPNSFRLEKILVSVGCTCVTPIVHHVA


How the values were obtained:
Recombinant Human IL-17 = molecular target: T1, Recombinant Human IL-17; assay: cell-based or functional assay
Recombinant Human IL-1β = Recombinant Human IL-1β (human, UniProt P01584 117-269); assay: cell-based or functional assay

Binder	N-terminal VD IL-17 Neutralization Assay EC50 (Recombinant Human IL-17)	C-Terminal VD IL-1β Neutralization Assay EC50 (Recombinant Human IL-1β)	C-terminal VD IL-17 Neutralization Assay EC50 (Recombinant Human IL-17)	N-Terminal VD IL-1β Neutralization Assay EC50 (Recombinant Human IL-1β)
DVD1289 (bispecific antibody, human IgG1, kappa) heavy: not shown light: EIVLTQSPDFQSVTPKEKVTITCRASQNIGSELHWYQQKPDQSPKLLIKYASHSISGVPSRFSGSGSGTDFTLTINGLEAEDAATYYCHQSDTLPHTFGQGTKVDIKRTVAAPDTVVTQSPAFLSVTPGEKVTITCITSTDIDVDMNWYQQKPDQPPKLLISQGNTLRPGVPSRFSSSGSGTDFTFTISSLEAEDAATYYCLQSDNLPLTFGQGTKLEIKRTVAAPSVFIFPPSDEQLKSGTASVVCLLNNFYPREAKVQWKVDNALQSGNSQESVTEQDSKDSTYSLSSTLTLSKADYEKHKVYACEVTHQGLSSPVTKSFNRGEC	0.096 nM	18.8 nM	–	–
DVD1290 (bispecific antibody, human IgG1, kappa) heavy: not shown light: ETTVTQSPSSLSASVGDRVTITCITSTDIDVDMNWYQQKPGKPPKLLISQGNTLRPGVPSRFSSSGSGTDFTFTISSLQPEDFATYYCLQSDNLPLTFGQGTKLEIKRTVAAPEIVLTQSPDFQSVTPKEKVTITCRASQNIGSELHWYQQKPDQSPKLLIKYASHSISGVPSRFSGSGSGTDFTLTINGLEAEDAATYYCHQSDTLPHTFGQGTKVDIKRTVAAPSVFIFPPSDEQLKSGTASVVCLLNNFYPREAKVQWKVDNALQSGNSQESVTEQDSKDSTYSLSSTLTLSKADYEKHKVYACEVTHQGLSSPVTKSFNRGEC	–	–	0.0181 nM	0.252 nM
DVD1291 (bispecific antibody, human IgG1, kappa) heavy: not shown light: EIVLTQSPDFQSVTPKEKVTITCRASQNIGSELHWYQQKPDQSPKLLIKYASHSISGVPSRFSGSGSGTDFTLTINGLEAEDAATYYCHQSDTLPHTFGQGTKVDIKRTVAAPETTVTQSPSSLSASVGDRVTITCITSTDIDVDMNWYQQKPGKPPKLLISQGNTLRPGVPSRFSSSGSGTDFTFTISSLQPEDFATYYCLQSDNLPLTFGQGTKLEIKRTVAAPSVFIFPPSDEQLKSGTASVVCLLNNFYPREAKVQWKVDNALQSGNSQESVTEQDSKDSTYSLSSTLTLSKADYEKHKVYACEVTHQGLSSPVTKSFNRGEC	0.0062 nM	> 100 nM	–	–
DVD1589 (bispecific antibody, human IgG1, kappa) heavy: not shown light: DIQMTQSPSSLSASVGDRVTITCRASGNIHNYLTWYQQTPGKAPKLLIYNAKTLADGVPSRFSGSGSGTDYTFTISSLQPEDIATYYCQHFWSIPYTFGQGTKLQITRTVAAPSVFIFPPDIQMTQSPSSLSASVGDRVTITCRASSGIISYIDWFQQKPGKAPKRLIYATFDLASGVPSRFSGSGSGTDYTLTISSLQPEDFATYYCRQVGSYPETFGQGTKLEIKRTVAAPSVFIFPPSDEQLKSGTASVVCLLNNFYPREAKVQWKVDNALQSGNSQESVTEQDSKDSTYSLSSTLTLSKADYEKHKVYACEVTHQGLSSPVTKSFNRGEC	–	–	0.0011 nM	0.0068 nM
DVD1590 (bispecific antibody, human IgG1, kappa) heavy: not shown light: DIQMTQSPSSLSASVGDRVTITCRASSGIISYIDWFQQKPGKAPKRLIYATFDLASGVPSRFSGSGSGTDYTLTISSLQPEDFATYYCRQVGSYPETFGQGTKLEIKRTVAAPSVFIFPPDIQMTQSPSSLSASVGDRVTITCRASGNIHNYLTWYQQTPGKAPKLLIYNAKTLADGVPSRFSGSGSGTDYTFTISSLQPEDIATYYCQHFWSIPYTFGQGTKLQITRTVAAPSVFIFPPSDEQLKSGTASVVCLLNNFYPREAKVQWKVDNALQSGNSQESVTEQDSKDSTYSLSSTLTLSKADYEKHKVYACEVTHQGLSSPVTKSFNRGEC	0.0016 nM	1.6 nM	–	–
DVD1591 (bispecific antibody, human IgG1, kappa) heavy: not shown light: DIQMTQSPSSLSASVGDRVTITCRASGNIHNYLTWYQQTPGKAPKLLIYNAKTLADGVPSRFSGSGSGTDYTFTISSLQPEDIATYYCQHFWSIPYTFGQGTKLQITRTVAAPSVFIFPPDIQMTQSPSSLSASVGDRVTITCRASSGIISYIDWFQQKPGKAPKRLIYATFDLASGVPSRFSGSGSGTDYTLTISSLQPEDFATYYCRQVGSYPETFGQGTKLEIKRTVAAPSVFIFPPSDEQLKSGTASVVCLLNNFYPREAKVQWKVDNALQSGNSQESVTEQDSKDSTYSLSSTLTLSKADYEKHKVYACEVTHQGLSSPVTKSFNRGEC	–	–	0.0393 nM	0.0023 nM
DVD1592 (bispecific antibody, human IgG1, kappa) heavy: not shown light: DIQMTQSPSSLSASVGDRVTITCRASSGIISYIDWFQQKPGKAPKRLIYATFDLASGVPSRFSGSGSGTDYTLTISSLQPEDFATYYCRQVGSYPETFGQGTKLEIKRTVAAPSVFIFPPDIQMTQSPSSLSASVGDRVTITCRASGNIHNYLTWYQQTPGKAPKLLIYNAKTLADGVPSRFSGSGSGTDYTFTISSLQPEDIATYYCQHFWSIPYTFGQGTKLQITRTVAAPSVFIFPPSDEQLKSGTASVVCLLNNFYPREAKVQWKVDNALQSGNSQESVTEQDSKDSTYSLSSTLTLSKADYEKHKVYACEVTHQGLSSPVTKSFNRGEC	0.0117 nM	0.109 nM	–	–
DVD1593 (bispecific antibody, human IgG1, kappa) heavy: not shown light: DTQVTQSPSSLSASVGDRVTITCITSTDIDVDMNWYQQKPGKPPKLLISQGNTLRPGVPSRFSSSGSGTDFTFTISSLQPEDFATYYCLQSDNLPLTFGQGTKLEIKRTVAAPSVFIFPPDIQMTQSPSSLSASVGDRVTITCRASSGIISYIDWFQQKPGKAPKRLIYATFDLASGVPSRFSGSGSGTDYTLTISSLQPEDFATYYCRQVGSYPETFGQGTKLEIKRTVAAPSVFIFPPSDEQLKSGTASVVCLLNNFYPREAKVQWKVDNALQSGNSQESVTEQDSKDSTYSLSSTLTLSKADYEKHKVYACEVTHQGLSSPVTKSFNRGEC	–	–	0.001 nM	0.184 nM
DVD1594 (bispecific antibody, human IgG1, kappa) heavy: not shown light: DIQMTQSPSSLSASVGDRVTITCRASSGIISYIDWFQQKPGKAPKRLIYATFDLASGVPSRFSGSGSGTDYTLTISSLQPEDFATYYCRQVGSYPETFGQGTKLEIKRTVAAPSVFIFPPDTQVTQSPSSLSASVGDRVTITCITSTDIDVDMNWYQQKPGKPPKLLISQGNTLRPGVPSRFSSSGSGTDFTFTISSLQPEDFATYYCLQSDNLPLTFGQGTKLEIKRTVAAPSVFIFPPSDEQLKSGTASVVCLLNNFYPREAKVQWKVDNALQSGNSQESVTEQDSKDSTYSLSSTLTLSKADYEKHKVYACEVTHQGLSSPVTKSFNRGEC	0.0025 nM	9.1 nM	–	–
DVD1595 (bispecific antibody, human IgG1, kappa) heavy: not shown light: DTVVTQSPAFLSVTPGEKVTITCITSTDIDVDMNWYQQKPDQPPKLLISQGNTLRPGVPSRFSSSGSGTDFTFTISSLEAEDAATYYCLQSDNLPLTFGQGTKLEIKRTVAAPSVFIFPPDIQMTQSPSSLSASVGDRVTITCRASSGIISYIDWFQQKPGKAPKRLIYATFDLASGVPSRFSGSGSGTDYTLTISSLQPEDFATYYCRQVGSYPETFGQGTKLEIKRTVAAPSVFIFPPSDEQLKSGTASVVCLLNNFYPREAKVQWKVDNALQSGNSQESVTEQDSKDSTYSLSSTLTLSKADYEKHKVYACEVTHQGLSSPVTKSFNRGEC	–	–	0.0019 nM	0.204 nM
DVD1596 (bispecific antibody, human IgG1, kappa) heavy: not shown light: DIQMTQSPSSLSASVGDRVTITCRASSGIISYIDWFQQKPGKAPKRLIYATFDLASGVPSRFSGSGSGTDYTLTISSLQPEDFATYYCRQVGSYPETFGQGTKLEIKRTVAAPSVFIFPPDTVVTQSPAFLSVTPGEKVTITCITSTDIDVDMNWYQQKPDQPPKLLISQGNTLRPGVPSRFSSSGSGTDFTFTISSLEAEDAATYYCLQSDNLPLTFGQGTKLEIKRTVAAPSVFIFPPSDEQLKSGTASVVCLLNNFYPREAKVQWKVDNALQSGNSQESVTEQDSKDSTYSLSSTLTLSKADYEKHKVYACEVTHQGLSSPVTKSFNRGEC	0.0007 nM	3.44 nM	–	–
DVD1597 (bispecific antibody, human IgG1, kappa) heavy: not shown light: ETTVTQSPSSLSASVGDRVTITCITSTDIDVDMNWYQQKPGKPPKLLISQGNTLRPGVPSRFSSSGSGTDFTFTISSLQPEDFATYYCLQSDNLPLTFGQGTKLEIKRTVAAPSVFIFPPDIQMTQSPSSLSASVGDRVTITCRASSGIISYIDWFQQKPGKAPKRLIYATFDLASGVPSRFSGSGSGTDYTLTISSLQPEDFATYYCRQVGSYPETFGQGTKLEIKRTVAAPSVFIFPPSDEQLKSGTASVVCLLNNFYPREAKVQWKVDNALQSGNSQESVTEQDSKDSTYSLSSTLTLSKADYEKHKVYACEVTHQGLSSPVTKSFNRGEC	–	–	0.0008 nM	0.326 nM
DVD1598 (bispecific antibody, human IgG1, kappa) heavy: not shown light: DIQMTQSPSSLSASVGDRVTITCRASSGIISYIDWFQQKPGKAPKRLIYATFDLASGVPSRFSGSGSGTDYTLTISSLQPEDFATYYCRQVGSYPETFGQGTKLEIKRTVAAPSVFIFPPETTVTQSPSSLSASVGDRVTITCITSTDIDVDMNWYQQKPGKPPKLLISQGNTLRPGVPSRFSSSGSGTDFTFTISSLQPEDFATYYCLQSDNLPLTFGQGTKLEIKRTVAAPSVFIFPPSDEQLKSGTASVVCLLNNFYPREAKVQWKVDNALQSGNSQESVTEQDSKDSTYSLSSTLTLSKADYEKHKVYACEVTHQGLSSPVTKSFNRGEC	0.0053 nM	11.9 nM	–	–
DVD1599 (bispecific antibody, human IgG1, kappa) heavy: not shown light: DIQMTQSPSSLSASVGDRVTITCRASGNIHNYLTWYQQTPGKAPKLLIYNAKTLADGVPSRFSGSGSGTDYTFTISSLQPEDIATYYCQHFWSIPYTFGQGTKLQITRTVAAPSVFIFPPEIVLTQSPDFQSVTPKEKVTITCRASQDIGSELHWYQQKPDQPPKLLIKYASHSTSGVPSRFSGSGSGTDFTLTINGLEAEDAGTYYCHQTDSLPYTFGPGTKVDIKRTVAAPSVFIFPPSDEQLKSGTASVVCLLNNFYPREAKVQWKVDNALQSGNSQESVTEQDSKDSTYSLSSTLTLSKADYEKHKVYACEVTHQGLSSPVTKSFNRGEC	–	–	0.0504 nM	0.0048 nM
